Measurements: PMC11933685 (Nature Communications, 2025)

Target: T1, recombinant mouse neuropilin-1 (C-6His, #C11R; NRP-1) (mouse, UniProt P97333 22-856)
T1 sequence (looked up): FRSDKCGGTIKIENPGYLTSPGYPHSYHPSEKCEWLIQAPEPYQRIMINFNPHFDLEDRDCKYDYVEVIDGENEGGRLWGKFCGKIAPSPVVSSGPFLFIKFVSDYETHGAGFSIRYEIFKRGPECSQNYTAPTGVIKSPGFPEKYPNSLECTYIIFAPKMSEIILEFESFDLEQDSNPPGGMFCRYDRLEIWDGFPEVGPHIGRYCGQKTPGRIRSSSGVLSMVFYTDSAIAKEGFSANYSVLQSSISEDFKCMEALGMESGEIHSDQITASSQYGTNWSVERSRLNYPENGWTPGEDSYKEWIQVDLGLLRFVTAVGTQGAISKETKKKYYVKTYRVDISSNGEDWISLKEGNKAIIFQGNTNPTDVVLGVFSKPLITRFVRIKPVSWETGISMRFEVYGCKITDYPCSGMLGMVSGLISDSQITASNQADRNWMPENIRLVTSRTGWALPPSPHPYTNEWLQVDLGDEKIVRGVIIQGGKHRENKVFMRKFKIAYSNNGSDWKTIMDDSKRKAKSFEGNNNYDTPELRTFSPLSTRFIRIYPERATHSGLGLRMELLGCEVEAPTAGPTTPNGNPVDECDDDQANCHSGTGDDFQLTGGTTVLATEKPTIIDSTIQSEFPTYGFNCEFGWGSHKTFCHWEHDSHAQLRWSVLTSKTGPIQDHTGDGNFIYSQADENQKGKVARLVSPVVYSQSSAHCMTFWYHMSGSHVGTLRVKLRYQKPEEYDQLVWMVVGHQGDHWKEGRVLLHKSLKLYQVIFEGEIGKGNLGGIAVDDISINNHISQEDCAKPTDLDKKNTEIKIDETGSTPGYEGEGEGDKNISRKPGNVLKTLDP
Experiment: SPR

B1: cancer homing peptide (CHP, CGNKRTR), free peptide (peptide)
peptide: CGNKRTR
With B1 the Kd was 6.49 µM.
